Assays:
[1] = target: recombinant 30Kc19 protein (Bombyx mori); assay: native gel or EMSA
[2] = target: recombinant 30Kc19 protein (Bombyx mori); assay: native gel or EMSA; remark: listed apart in the source
[3] = target: recombinant 30Kc19 protein (Bombyx mori); assay: native gel or EMSA; remark: listed apart in the source
[4] = target: recombinant 30Kc19 protein (Bombyx mori); assay: non-reducing SDS-PAGE
[5] = target: 30Kc19 C76A protein (Bombyx mori); assay: native gel or EMSA

Row | Substance | stoichiometry N [1] | stoichiometry N [2] | stoichiometry N [3] | stoichiometry N [4] | stoichiometry N [5]
1 | recombinant 30Kc19 protein (natural protein) | 2 | 2 | 2 | 2 | –
2 | 30Kc19 C76A protein (natural protein) | – | – | – | – | 2

From article PMC4283735
